This is an account of results in US20110150870A1 (UNITED STATES OF AMERICA AS REPRESENTED BY TH, published 2011).

The target in the assay is T1, tetanus toxoid (UniProt P04958 2-1315).
T1 construct: also called TT
The experiment in a line: ELISA, 100 ng protein coated per well, anti-human Fab-HRP detection.

T1 sequence (P04958 2-457 limits assumed, chain 1 of 2): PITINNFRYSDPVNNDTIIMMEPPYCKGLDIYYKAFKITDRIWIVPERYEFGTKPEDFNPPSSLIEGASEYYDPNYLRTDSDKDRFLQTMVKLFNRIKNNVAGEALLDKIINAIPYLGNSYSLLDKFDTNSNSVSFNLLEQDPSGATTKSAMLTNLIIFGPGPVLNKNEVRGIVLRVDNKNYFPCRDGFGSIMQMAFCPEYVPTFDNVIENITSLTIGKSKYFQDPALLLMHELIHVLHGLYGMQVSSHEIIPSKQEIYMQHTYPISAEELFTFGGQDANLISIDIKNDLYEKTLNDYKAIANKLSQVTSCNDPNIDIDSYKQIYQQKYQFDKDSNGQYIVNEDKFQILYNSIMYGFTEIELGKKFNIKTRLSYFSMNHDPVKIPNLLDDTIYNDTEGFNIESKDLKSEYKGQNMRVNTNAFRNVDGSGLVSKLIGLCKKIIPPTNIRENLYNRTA
T1 sequence (P04958 458-1315 limits assumed, chain 2 of 2): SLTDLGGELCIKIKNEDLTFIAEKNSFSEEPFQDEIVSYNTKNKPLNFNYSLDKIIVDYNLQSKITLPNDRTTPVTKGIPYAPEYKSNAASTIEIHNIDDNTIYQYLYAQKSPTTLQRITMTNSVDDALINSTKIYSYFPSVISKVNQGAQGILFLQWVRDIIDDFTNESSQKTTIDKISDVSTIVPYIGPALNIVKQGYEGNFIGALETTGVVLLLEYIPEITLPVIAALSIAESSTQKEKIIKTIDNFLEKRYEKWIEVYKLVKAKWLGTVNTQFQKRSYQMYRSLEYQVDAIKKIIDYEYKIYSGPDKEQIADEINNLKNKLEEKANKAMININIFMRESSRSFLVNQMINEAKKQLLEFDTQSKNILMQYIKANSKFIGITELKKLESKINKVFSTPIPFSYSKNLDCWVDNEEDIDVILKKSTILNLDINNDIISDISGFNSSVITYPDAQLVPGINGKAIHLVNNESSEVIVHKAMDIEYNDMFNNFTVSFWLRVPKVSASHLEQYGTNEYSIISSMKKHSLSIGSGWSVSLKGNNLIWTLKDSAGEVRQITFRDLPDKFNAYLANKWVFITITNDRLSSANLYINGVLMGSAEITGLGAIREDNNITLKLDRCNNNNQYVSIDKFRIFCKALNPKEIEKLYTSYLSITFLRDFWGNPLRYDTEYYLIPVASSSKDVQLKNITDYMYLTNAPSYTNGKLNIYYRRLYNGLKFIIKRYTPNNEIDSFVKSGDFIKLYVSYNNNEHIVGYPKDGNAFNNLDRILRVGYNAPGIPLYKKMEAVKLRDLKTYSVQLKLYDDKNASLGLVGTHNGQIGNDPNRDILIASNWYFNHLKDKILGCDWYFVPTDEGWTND

B1: KYK-1.0 Fab (Fab, V domains shown)
VH: EVQLVESGGGVVQPGGSLRLSCAASGFTFSSYGMHWVRQAPGKGLEWVAFIRYDGSNKYYADSVKGRFTISRDNSKNTKYLQMNSLRAEDTAVYYCAKDRFGYYLDYWGQGTLVTVSS
VL: QPVLTQPSSVSVAPGETARIPCGGDDIETKSVHWYQQKPGQAPVLVIYDDDDRPSGIPERFFGSNSGNTATLSISRVEAGDEADYYCQVWDDNNDEWVFGGGTQLTVL
notes: Human Fab with human constant domains (lambda light chain) and a C-terminal (His)6 tag, expressed in E. coli from pC3C-His and purified by IMAC
For B1, the binding result was “no binding”.

B2: KYK-2.0 Fab (Fab, V domains shown)
VH: QVQLVESGGGLVKPGGSLRLSCAASGFTFSSYGMHWVRQAPGKGLEWVAFIRYDGSNKYYADSVKGRFTISRDNSKNTKYLQMNSLRAEDTAVYYCAKDRGLGDGTYFDYWGQGTTVTVSS
VL: QSALTQPASVSGSPGQSITISCSGSSSNIGNNAVNWYQQLPGKAPKLLIYYDDLLPSGVSDRFSGSKSGTSAFLAISGLQSEDEADYYCAAWDDSLNGPVFGGGTKLTVL
notes: Human Fab (lambda) with human constant domains and a C-terminal (His)6 tag, expressed in E. coli from pC3C-His and purified by IMAC
For the molecule B2, the binding result is listed as “no binding”.
